Experimental findings from PMC10827914 (Cellular and Molecular Life Sciences: CMLS, 2024) are described below.

Several values for one entry are separate records, joined by “and”; a condition that tells them apart may be missing. Identical values can stand only once. Entries after “also recorded” stand apart in the source; their conditions may differ. Bridges are numbered along the chain shown (N, C = ends). Where no end group is shown, it is not given here.

The term Ki denotes a dissociation constant, usually derived from enzyme kinetics or from competition with a known ligand.

One series has as its system WEHI-164 fibrosarcoma. Put plainly: Antitumor activity in WEHI-164 fibrosarcoma-bearing mice. It is filed as in vivo. As for the experimental part:
Female BALB/c mice (Charles River Laboratories, Calco, Italy), weighing 16–18 g, were subcutaneously injected into the left flank of 10^6 WEHI-164 cells (ATCC, cat. CRL-1751, Lot. 63,682,839). Dose-finding experiments were performed with groups of six mice treated with G4-TNF (4, 20, or 100 pg/dose in 100 μL of 0.9% sodium chloride containing 100 µg/ml HSA, intraperitoneally injected on day 5) or vehicle. Tumor growth was monitored daily by measuring tumor volume with calipers, as previously described. The animals were sacrificed before the tumor diameter reached 1.0–1.5 cm. To test whether the antitumor activity of G4-TNF was mediated by CD13, tumor-bearing mice (6 animals/group) were treated with a single injection of G4-TNF (100 pg/dose, i.p.) in combination with peptide CNGRC (100 µg/dose) or anti-CD13 mAb R3-63 (25 µg/dose, given 1.5 h i.p. before administration of G4-TNF) 5 days after tumor implantation.
Fig. 3 Effect of G4-TNF on tumor growth and body weight of mice bearing WEHI-164 fibrosarcomas. A Mice bearing subcutaneous WEHI-164 tumors (5–6 mice/groups) were treated 5 days after tumor implantation with a single intraperitoneal injection of G4-TNF (0, 4, 20, or 100 pg). Tumor volume and body weight after treatment were monitored daily. B Effect of mAb R3-63 (anti-murine CD13 antibody, 25 µg) and CNGRC peptide (100 µg) on the antitumor activity of G4-TNF (100 pg) (5–6 mice/group). The arrows indicate the time of treatment. *P < 0.05; **P < 0.01, by Mann–Whitney analysis of the area under the curve for each tumor, with the GraphPad Prism software (mean ± SEM)
A) Mice bearing subcutaneous WEHI-164 tumors (6 mice/groups), were treated 5-6 days after tumor implantation with a single intraperitoneal injection of murine NGR-TNF (0, 25, 50, or 100 pg). Tumor volume and body weight after treatment were monitored daily.
B) Effect of murine TNF (50 pg) on tumor growth and body weight. The arrows indicate the time of treatment (mean ± SEM).

In series [1] the test system is rCD13 (His-tagged recombinant human CD13). Put plainly: rCD13 (2 µg/mL) in 60 mM Tris-HCl, pH 7.4. Conditions: 37°C, up to 16 h.
Series [2] deals with His-tagged recombinant human CD13 (rCD13) (human) (UniProt P15144).
The target in series [3] is T1, His-tagged recombinant human CD13 (rCD13) (human, UniProt P15144 33-967).
T1 construct: aminopeptidase N / CD13, human, extracellular domain (soluble ectodomain); also called recombinant soluble CD13; recombinant CD13 ectodomain; source: bought: Sino Biological (cat. 10051-H08H), expressed in HEK-293 cells
Put plainly: steady-state enzyme inhibition kinetics; rCD13 with L-alanine-p-nitroanilide (0-1.5 mM) and … (0-900 nM), 60 mM potassium phosphate buffer, pH 7.4, 37 °C; initial velocities of the first 5 min; competitive enzyme inhibition model (GraphPad Prism). Conditions: both partners purified.

T1 sequence (P15144 33-967): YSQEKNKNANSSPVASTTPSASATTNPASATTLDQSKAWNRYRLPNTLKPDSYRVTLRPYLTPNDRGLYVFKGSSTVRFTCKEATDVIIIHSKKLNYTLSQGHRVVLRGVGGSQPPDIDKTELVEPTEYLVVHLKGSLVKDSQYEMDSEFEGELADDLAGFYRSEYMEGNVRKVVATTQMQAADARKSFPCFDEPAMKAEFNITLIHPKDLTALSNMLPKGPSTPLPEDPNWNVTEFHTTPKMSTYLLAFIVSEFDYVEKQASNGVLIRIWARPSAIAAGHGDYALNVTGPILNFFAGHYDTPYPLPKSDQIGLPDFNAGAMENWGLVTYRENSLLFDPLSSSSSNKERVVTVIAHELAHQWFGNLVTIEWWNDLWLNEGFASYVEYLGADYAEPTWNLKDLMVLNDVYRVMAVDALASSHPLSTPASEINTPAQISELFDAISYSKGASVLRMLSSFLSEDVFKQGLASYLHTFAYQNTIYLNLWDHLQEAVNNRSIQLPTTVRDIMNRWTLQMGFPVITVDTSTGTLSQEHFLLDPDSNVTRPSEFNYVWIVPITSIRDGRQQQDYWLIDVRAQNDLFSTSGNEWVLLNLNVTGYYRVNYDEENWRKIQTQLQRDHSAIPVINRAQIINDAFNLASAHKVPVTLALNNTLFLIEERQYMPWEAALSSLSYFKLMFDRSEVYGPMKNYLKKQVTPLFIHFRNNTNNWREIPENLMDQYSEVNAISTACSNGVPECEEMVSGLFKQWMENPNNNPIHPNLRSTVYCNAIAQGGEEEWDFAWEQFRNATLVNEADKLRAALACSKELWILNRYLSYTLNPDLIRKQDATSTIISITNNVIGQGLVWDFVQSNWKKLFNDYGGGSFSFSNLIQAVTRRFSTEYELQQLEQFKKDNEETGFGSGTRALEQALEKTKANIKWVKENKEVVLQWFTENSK
Sequence of His-tagged recombinant human CD13 (rCD13) (human) (P15144 33-967): as above

As for CNGRC [reference compound], the “Effect on the antitumor activity of G4-TNF” value in the series on WEHI-164 fibrosarcoma (G4-TNF 100 pg i.p. with mAb R3-63 25 µg (1.5 h before) or CNGRC 100 µg) is “markedly reduced (almost completely)”.

For the molecule VGCARRYCS, the cleaved bond entry in series [1] was “Val1-Gly2, 16 h; also recorded: Gly2-Cys3, 16 h”.

As for VGCGRRYCSN (disulfide 3-8 (inferred)) [peptide … (disulfide-bridged)], the IC50 of inhibition of rCD13 enzymatic activity (L-alanine-p-nitroanilide substrate) in series [2] amounted to 2.01 µM.

B1: TNF: murine TNF (not linked to G4) (protein)
chain: MSTESMIRDVELAEEALPQKMGGFQNSRRCLCLSLFSFLLVAGATTLFCLLNFGVIGPQRDEKFPNGLPLISSMAQTLTLRSSSQNSSDKPVAHVVANHQVEEQLEWLSQRANALLANGMDLKDNQLVVPADGLYLVYSQVLFKGQGCPDYVLLTHTVSRFAISYQEKVNLLSAVKSPCPKDTPEGAELKPWYEPIYLGGVFQLEKGDQLSAEVNLPKYLDFAESGQVYFGVIAL
As for B1, the “Antitumor effect (tumor growth)” value with WEHI-164 fibrosarcoma (single intraperitoneal injection of 50 pg) is “totally inactive”.

B2: peptide VGCARRYCS (disulfide-bridged, called G4) (peptide)
peptide: VGCARRYCS
modifications: disulfide 3-8 (inferred)
notes: optimised CD13 ligand peptide; also called free G4 peptide; source: synthetic peptide
B2: the Ki in series [3] is 21 nM and ~22 nM.
